Reference: publication PMC7760923
“And” between values parts separate entries of the source, which are not always exact repeats. Equal values may be shown once.

How the values were obtained:
[1] = tested on: P12643; test: dynamic light scattering (DLS); BMP-2 in MES buffer pH 5, 25 °C, 173°; association of BMP-2 dimers to aggregates; details: other: dynamic light scattering (DLS)
[2] = target: E. coli-derived recombinant human bone morphogenetic protein 2 (rhBMP-2) (human) (UniProt P12643); test: native gel or EMSA; blue native PAGE of BMP-2 solutions, Western blot with anti-BMP-2 and silver stain; oligomers of the disulfide-bridged 26 kDa dimer

Sequence of E. coli-derived recombinant human bone morphogenetic protein 2 (rhBMP-2) (P12643 283-396 limits assumed): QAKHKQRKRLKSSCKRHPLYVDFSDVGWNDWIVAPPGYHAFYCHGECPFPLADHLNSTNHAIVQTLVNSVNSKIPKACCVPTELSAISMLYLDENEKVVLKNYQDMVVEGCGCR

Substance | percent of BMP-2 in larger aggregates (DLS) [1] | stoichiometry N (26 kDa BMP-2 dimers) [2]
E. coli-derived recombinant human bone morphogenetic protein 2 (rhBMP-2) | 3% was apparently in the form of larger aggregates | –
E. coli-derived recombinant human bone morphogenetic protein 2 (rhBMP-2) (from UniProt P12643 24-396) (ligand) | – | 2 and 4
